Values joined by “and” are separate entries in the source; they are usually repeats but may differ in a detail not shown here. Equal values may be shown once.

For assay [1], the target named is recombinant trimerized His-tagged soluble HA of A/South Carolina/1/18 (1918 wt) (Influenza A virus A/South …, UniProt Q9WFX3, strain). Description: BLI; […]; 1:1 binding model, […]. The following applies: both partners purified. (Biolayer interferometry detects binding as a change in optical thickness at a sensor tip.)
Assay [2] concerns the target recombinant trimerized His-tagged soluble HA, A/South Carolina/1/18 (1918 wt) (Influenza A virus A/South …, UniProt Q9WFX3, strain). Description: BLI. The following applies: both partners purified.

B1: 1I20 Fab (Fab, V domains shown)
VH: EVQLVESGGGVVQPGGSLRLSCIASAFNLGIFGMHWVRQAPGKGLEWVAFIRYDGGKTFYADSVKGRFTISRDNSKNTLYLQMNSLRTEDTALYYCARDATADYYGPGSYPNWLDPWGQGTLVTVSS
VL: DIRLTQSPATLSVSPGERATLSCRASHSVSRNLAWYQQKPGRAPRLLVYDTSSRATGIPARFSGSGSGTEFTLTISSLQSEDFAVYYCQQYNNWPRTFGQGTKVDIK
notes: also called mAb 1I20; source: HEK 293F, transiently co-transfected, purified (HiTrap Protein G)
What is called Kd is a measure of binding affinity in units of concentration. A word on the koff: it is the first-order rate constant of dissociation. What is called kon is a measure of how fast the partners come together. For the molecule B1, in assay [1], the dissociation constant (Kd) was 3.22 nM and 3.46 nM; the koff is 0.000375 s⁻¹ and 0.000366 s⁻¹; the kon was 116000 M⁻¹ s⁻¹ and 106000 M⁻¹ s⁻¹.

B2: 1I20 Fab (Fab, V domains shown)
VH: B1 VH
VL: B1 VL
notes: also called mAb 1I20
For the molecule B2, the equilibrium dissociation constant (Kd) in assay [2] amounted to 3.3 nM.

These data come from article PMC3516549 (PLoS Pathogens, 2012).
